Key:
[1] = tested on: cynomolgus NaPi2b; test: Flow cytometry binding to HEK293-6e cells transfected with cynomolgus NaPi2b (Example 5); settings: transfected HEK293-6e cells
Procedure: The binding cross-reactivity of humanized antibody variant v29456 to human, cynomolgus and mouse NaPi2b was assessed by flow cytometry using HEK293-6e transfected cells.
Briefly, HEK293-6e cells were transfected for ˜24 hours to transiently express human NaPi2b, cynomolgus or mouse NaPi2b, at 1 μg of DNA per 1 million cells. Following transfection, 50,000 cells per well were seeded in V-bottom 96-well plates and incubated with 200 nM of primary antibody for 18-24 hours at 4° C. to prevent internalization. Post-incubation, cells were washed and stained with anti-Human IgG Fc AF647 conjugate (Jackson Immuno Research Labs, West Grove, PA, Cat. No. 109-605-098, Lot. No. 124868) at 4° C. for 1 hour. Following staining and washing, fluorescence was detected by flow cytometry on BD LSRFortessa™ Cell Analyzer (BD Biosciences, Franklin Lake, NJ) with 10,000 minimum events collected per well. The AF647/APC-A GeoMean (fluorescence signal geometric mean, proportional to anti-Human AF647 binding) was calculated for the live singlet cell population for each primary antibody using FlowJo™ v8 software (BD Biosciences, Franklin Lake, NJ). The Bmax and Kd of each primary antibody were calculated using GraphPad Prism Version 9 (GraphPad Software, San Diego, CA)

[2] = tested on: dsDNA; test: NS-ELISA non-specific binding, dsDNA; settings: mAb at 100 nM
Procedure: The isoelectric point was measured by capillary isoelectric focusing (cIEF), the propensity for self-aggregation was measured by Affinity-capture self-interaction nanoparticle spectroscopy (AC-SINS) and non-specific binding was measured by NS-ELISA, as described below.
NS-ELISA was used to measure the propensity of the antibodies to bind to a range of biomolecules to emulate the undesirable non-specific interactions to biological matrices in vivo as described below.
NS-ELISA was carried out in Corning®96-well EIA/RIA Easy Wash™ Clear Flat Bottom Polystyrene High Bind Microplate coated overnight at 4° C. with 50 μL of Heparin (Sigma, H3149) diluted with 50 mM sodium carbonate pH 9.6 to a final concentration of 250 μg/mL. The plate was incubated for 2 days at room temperature, wells that were coated with heparin were not covered to allow air dry. […] Reactions were stopped after approximately 10 minutes by adding 100 μL of 1 M HCl to each well, and absorbance was read at 450 nm. Binding scores were calculated as the ratio of the ELISA signal of the antibody (antibody-treated) to the signal of a well containing buffer instead of the primary antibody (untreated). The cutoffs considered for each binding molecule (ssDNA, KLH, insulin, dsDNA and heparin) were internally calculated, based on the average of Zymeworks Inc. produced antibodies and antibodies benchmarks published in the literature.

Sequence of cynomolgus NaPi2b (as listed by the source): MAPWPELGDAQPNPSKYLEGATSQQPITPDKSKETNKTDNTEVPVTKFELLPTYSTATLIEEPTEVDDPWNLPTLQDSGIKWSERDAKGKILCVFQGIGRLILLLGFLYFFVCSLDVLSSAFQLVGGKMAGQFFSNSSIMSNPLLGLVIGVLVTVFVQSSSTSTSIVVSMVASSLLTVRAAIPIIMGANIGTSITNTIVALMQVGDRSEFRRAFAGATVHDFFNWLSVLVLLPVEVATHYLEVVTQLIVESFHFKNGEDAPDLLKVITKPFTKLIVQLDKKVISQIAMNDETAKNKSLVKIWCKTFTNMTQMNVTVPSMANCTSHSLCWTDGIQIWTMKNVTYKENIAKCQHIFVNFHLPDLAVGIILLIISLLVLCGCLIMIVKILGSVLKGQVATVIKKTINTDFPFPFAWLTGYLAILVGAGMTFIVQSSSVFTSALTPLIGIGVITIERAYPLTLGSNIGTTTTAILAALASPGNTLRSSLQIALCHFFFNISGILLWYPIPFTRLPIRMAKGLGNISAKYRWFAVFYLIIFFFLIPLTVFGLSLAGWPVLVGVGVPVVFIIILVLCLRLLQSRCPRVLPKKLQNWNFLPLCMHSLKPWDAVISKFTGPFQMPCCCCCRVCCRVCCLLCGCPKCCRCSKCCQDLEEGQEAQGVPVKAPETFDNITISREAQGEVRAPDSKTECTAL

- NS-ELISA binding score (ratio of signal between antibody-treated and untreated), dsDNA [2]: 1.07
B1: v29456: humanized anti-NaPi2b IgG1/kappa antibody H1L2; VH SEQ ID NO:24, VL SEQ ID NO:29 (antibody, V domains shown)
VH: QVQLVQSGAEVKKPGASVKVSCKASGFTFTSYNVHWVRQAPGQGLEWMGAISPGNGDLSYAQKFQGRVTMTRDTSTSTVYMELSSLRSEDTAVYYCARGRTGMGAVDYWGQGTLVTVSS
VL: DVQMTQSPSSLSASVGDRVTITCRASQDVYSYLNWYQQKPGKAVKLLIYYTSRLQSGVPSRFSGSGSGTDYTLTISSLQPEDFATYYCQQYNIFPWTFGQGTKLEIK
modifications: v29452, v29456, v29460 VH (H1); v29453, v29454, v29455, v29456 VL (L2)
- apparent Kd on cynomolgus NaPi2b, fold lower than v18992 (MX35) [1]: 10 fold
- Bmax (APC-A GeoMean), Cyno NaPi2b ([1]; 18-24 hours at 4° C.): 2,006 APC-A GeoMean
- Kd ([1]; 18-24 hours at 4° C., highest antibody concentration 200 nM, read-out: Apparent Kd (nM), Cyno NaPi2b): 3.2 nM
